The target of test [1] is T1, full-length hANGPTL4 (amino acid residues 26-406 of SEQ ID NO:476) with a C-terminal hexa-histidine tag (human, UniProt Q9BY76 26-406).
T1 construct: also called hANGPTL4-His; hANGPTL4(26-406)-His
T1 sequence: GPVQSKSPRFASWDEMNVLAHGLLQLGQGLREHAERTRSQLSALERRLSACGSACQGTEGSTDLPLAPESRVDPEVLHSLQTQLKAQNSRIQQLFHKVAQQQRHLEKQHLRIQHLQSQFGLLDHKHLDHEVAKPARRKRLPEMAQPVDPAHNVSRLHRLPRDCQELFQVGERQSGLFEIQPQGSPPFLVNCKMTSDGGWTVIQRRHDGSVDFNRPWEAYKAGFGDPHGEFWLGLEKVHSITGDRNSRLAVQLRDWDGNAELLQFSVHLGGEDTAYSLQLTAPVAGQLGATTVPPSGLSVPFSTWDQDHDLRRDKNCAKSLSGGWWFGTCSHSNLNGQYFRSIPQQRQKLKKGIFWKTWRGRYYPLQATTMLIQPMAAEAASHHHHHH
Kind of test: SPR (Biacore), 25° C., pH 5.75, antigen amino-coupled 450 RU. As to the method:
(§1) Kinetic analysis was performed to measure kₐ and kd, and KD values and half-life of antigen/antibody complex dissociation were calculated. The results are shown in Table 4 (H1H268P) and Table 5 (H1H284P).
On the technique in general: SPR reads the build-up and loss of mass on a sensor chip optically.

The target in test [2] is T2, amino acid residues 26-148 of human ANGPTL4 fused in-line to mouse IgG2a (hANGPTL4-mFc) (human).
T2 construct: contains the N-terminal coiled-coil region
T2 chain: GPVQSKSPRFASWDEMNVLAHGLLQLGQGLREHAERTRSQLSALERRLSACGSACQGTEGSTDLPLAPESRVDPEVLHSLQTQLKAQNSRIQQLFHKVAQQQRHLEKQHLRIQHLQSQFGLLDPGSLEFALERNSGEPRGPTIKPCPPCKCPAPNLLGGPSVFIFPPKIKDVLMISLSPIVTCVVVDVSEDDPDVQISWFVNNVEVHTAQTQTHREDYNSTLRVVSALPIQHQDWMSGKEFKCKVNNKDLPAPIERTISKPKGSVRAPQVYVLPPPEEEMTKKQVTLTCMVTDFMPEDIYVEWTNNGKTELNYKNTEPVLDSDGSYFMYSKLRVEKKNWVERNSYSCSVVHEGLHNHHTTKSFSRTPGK
Kind of test: SPR (Biacore T100), hANGPTL4-mFc captured by anti-mouse IgG, antibody injected, 25° C. The method, then: (§2) Antigen-antibody binding and dissociation were monitored in real time at 25° C. and 37° C. Kinetic analysis was performed to calculate KD and half-life of antigen/antibody complex dissociation.

Test [3] addresses T3, N-terminally biotinylated hANGPTL3 peptide (R36-I68 of SEQ ID NO:485) (human, N-terminal biotin).
T3 construct: also called hANGPTL3-Nterm biotin
T3 peptide: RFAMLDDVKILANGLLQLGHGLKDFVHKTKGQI
Put plainly: SPR (Biacore), antibody captured on anti-human Fc, peptide injected. The method, then:
(§3) Further, the binding affinities of H1H268P and H1H284P for various ANGPTL3 and ANGPTL4 peptides were also determined by BIACORE™ system. Briefly, H1H268P (1348±11 RU) and H1H284P (868±13 RU) were captured over anti-human Fc surface and various concentrations (62.5 nM-500 nM) of the hANGPTL3 and hANGPTL4 peptides were injected. […] Kinetic analysis was performed to measure kₐ and kd, and KD values and half-life of antigen/antibody complex dissociation were calculated. NB: No binding under the experimental conditions described.

The target of test [4] is T4, N-terminally biotinylated hANGPTL4 peptide (R34-L66 of SEQ ID NO:476) (human, N-terminal biotin).
T4 construct: also called hANGPTL4-Nterm biotin
T4 peptide: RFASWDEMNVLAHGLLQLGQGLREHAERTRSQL
The description is as above. As to the method: as §3

The target in test [5] is T5, hANGPTL4 peptide (R34-L66 of SEQ ID NO:476) (human).
T5 peptide: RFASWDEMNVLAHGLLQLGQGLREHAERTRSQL
Described as above. As to the method: as §3

Test [6] deals with T6, hANGPTL3 peptide (R36-I68 of SEQ ID NO:485) (human).
T6 peptide: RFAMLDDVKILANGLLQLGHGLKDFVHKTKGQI
The test is described as above. As to the method: as §3

Test [7] concerns the target T2, amino acid residues 26-148 of human …. Put plainly: SPR (Biacore T100), hANGPTL4-mFc captured by anti-mouse IgG, antibody injected, 37° C. As to the method:
as §2

In test [8] the target is T1, full-length hANGPTL4 (amino acid …). Put plainly: SPR (Biacore), 25° C., pH 7.2, antigen amino-coupled 450 RU. The method, then: as §1

B1: H1H284P (antibody, V domains shown)
VH: QVQLVESGGGVVQPGRSLRLSCAASGFTFSSYGMHWVRQAPGKGLEWMAVISFDGGNKNNADSVKGRFTISRDNSKNTLYLQMNSLRAEDTAVYYCAKEGDRSGHPYFYYYGLDVWGQGTTVTVS
VL: DIQLTQSPSFLSASVGDRVTITCWASQGISSYLAWYQQKPGKAPKLLIYAASTLQSGVPSRFSGSGSETEFTLTISSLQPEDFATYYCQQLHSYPLTFGGGTKVEIK
notes: also called entire H1H284 mAb; Full mAb
For the molecule B1, the Kd (in general, the constant that tells how readily two partners part at equilibrium) in test [1] came to 0.141 nM; in test [2], 0.168 nM; in test [7], 0.349 nM; in test [8], 0.105 nM. In addition, the koff (usually the first-order rate constant of dissociation) was 0.000272 s⁻¹ in test [1] and 8.85e-05 s⁻¹ in test [8]. Also, the on-rate constant (kon) – broadly, the rate constant with which the complex forms – in test [1] stood at 1.93e+06 M⁻¹ s⁻¹; in test [8] it was 850000 M⁻¹ s⁻¹. Also, the t1/2 in test [1] was determined as 42 min; in test [2], 162 min; in test [7] it was 81 min; in test [8], 130 min. In addition, the binding result in test [3] is recorded as “no binding (tested: 62.5 nM-500 nM)”; in test [4], “no binding (tested: 500 nM)”; in test [5] it was “no binding (tested: 500 nM)”; in test [6], “no binding (tested: 62.5 nM-500 nM)”.

B2: H1H268P (antibody, V domains shown)
VH: QVQLQESGAGLLKPSETLSLTCTVYGGSFSIHHWTWIRHPPGKGLEWIGEINHRGSTNYNPSLKSRVTISIDTSKNQFSLKLSAVTAADTAVYYCARGLRFLDWLSSYFDYWGQGTLVTVSS
VL: DIQMTQSPSSLSASVGDRVTITCRASQGISDYLAWYQQKPGKVPNLLIYAASALQSGVPSRFSGSGSGTDFTLTISSLQPEDVATYYCQNYNTAPLTFGGGTKVEIK
notes: also called entire H1H268 mAb; Full mAb
Consider B2, for which the Kd in test [1] is 0.483 nM; in test [2] it was 0.275 nM; in test [4] it was 64.8 nM; in test [5], 56.3 nM; in test [7], 0.389 nM; in test [8], 0.408 nM. Further, the koff in test [1] was 0.000446 s⁻¹; in test [4], 0.000294 s⁻¹; in test [5], 0.000365 s⁻¹; in test [8] it was 0.0002 s⁻¹. In addition, the kon was found to be 923000 M⁻¹ s⁻¹ in test [1], 4530 M⁻¹ s⁻¹ in test [4], 6490 M⁻¹ s⁻¹ in test [5] and 489000 M⁻¹ s⁻¹ in test [8]. The t1/2 amounted to 26 min in test [1]; 80 min in test [2]; 39 min in test [4]; 32 min in test [5]; 57 min in test [7]; 58 min in test [8]. In addition, the binding result in test [3] and in test [6] was “no binding (tested: 62.5 nM-500 nM)” throughout.

The values above are taken from US20130266574A1 (Regeneron, published 2013).
